According to PMC2680030:

Biological target: ULBP1 (UniProt Q9BZM6)
Chain of UniProt Q9BZM6 (Q9BZM6 26-216): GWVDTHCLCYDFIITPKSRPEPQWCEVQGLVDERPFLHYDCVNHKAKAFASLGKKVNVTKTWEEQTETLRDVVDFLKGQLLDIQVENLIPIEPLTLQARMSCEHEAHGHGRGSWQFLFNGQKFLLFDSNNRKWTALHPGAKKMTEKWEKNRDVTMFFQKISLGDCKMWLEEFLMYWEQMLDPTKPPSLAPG

Chain of NKG2D (P26718 whole entry): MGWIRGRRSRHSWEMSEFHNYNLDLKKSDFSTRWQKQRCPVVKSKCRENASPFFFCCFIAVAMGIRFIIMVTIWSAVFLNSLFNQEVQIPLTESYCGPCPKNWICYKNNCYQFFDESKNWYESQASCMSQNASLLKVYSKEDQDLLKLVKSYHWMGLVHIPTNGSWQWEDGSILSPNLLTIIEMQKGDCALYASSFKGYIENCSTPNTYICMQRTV

Substance: NKG2D (from UniProt P26718 1-216) (receptor)
- specific killing via NKG2D: killing of C1R/ULBP1 (37%) minus killing of C1R/Mock (20%) by primary bulk NK culture NK-A.K., effector-to-target ratio 5:1, PI co-staining of CFSE-labelled target cells: 17%
